Experimental data reported in patent publication US7026125, “Heterodimers of retinoid X receptors (RXRS) and other steroid hormone receptors” (Ligand Pharmaceuticals).

T1: TRα (UniProt P10827-2 P10827-2:1-410)
T1 sequence: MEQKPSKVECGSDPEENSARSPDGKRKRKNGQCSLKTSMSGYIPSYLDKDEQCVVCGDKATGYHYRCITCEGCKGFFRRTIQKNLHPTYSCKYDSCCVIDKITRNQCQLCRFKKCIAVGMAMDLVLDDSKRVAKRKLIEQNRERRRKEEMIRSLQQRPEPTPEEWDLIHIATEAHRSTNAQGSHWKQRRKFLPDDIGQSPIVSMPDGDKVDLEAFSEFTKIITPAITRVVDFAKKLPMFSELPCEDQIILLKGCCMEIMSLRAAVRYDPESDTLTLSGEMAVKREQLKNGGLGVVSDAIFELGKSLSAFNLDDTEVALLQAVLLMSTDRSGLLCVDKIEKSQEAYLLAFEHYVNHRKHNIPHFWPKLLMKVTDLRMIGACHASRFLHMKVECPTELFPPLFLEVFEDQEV

B1: βRARE (dsDNA)
DNA 1: GATCAGGGTTCAGGCAAAGTTCACGATC
DNA 2: GATCGTGAACTTTGCCTGAACCCTGATC
B2: TRE/half (dsDNA)
DNA 1: GATCTCAGGTCAGATC
DNA 2: GATCTGACCTGAGATC
B3: TRE/OP (inverted repeat, 4 bp spacer) (dsDNA)
DNA 1: GATCCTGACCTGAGATCTCAGGTCAGGATC
DNA 2: B3 DNA 1
B4: ERE palindrome (dsDNA)
DNA 1: GATCTCAGGTCACTGTGACCTGAGATC
DNA 2: GATCTCAGGTCACAGTGACCTGAGATC

How the values were obtained:
Settings in all cases: label: 32P
RXRα = RXRα (Homo sapiens, UniProt P19793 P19793:1-462); assay: EMSA; at concentration used
RXRα, sequence (P19793 whole entry, one chain of several): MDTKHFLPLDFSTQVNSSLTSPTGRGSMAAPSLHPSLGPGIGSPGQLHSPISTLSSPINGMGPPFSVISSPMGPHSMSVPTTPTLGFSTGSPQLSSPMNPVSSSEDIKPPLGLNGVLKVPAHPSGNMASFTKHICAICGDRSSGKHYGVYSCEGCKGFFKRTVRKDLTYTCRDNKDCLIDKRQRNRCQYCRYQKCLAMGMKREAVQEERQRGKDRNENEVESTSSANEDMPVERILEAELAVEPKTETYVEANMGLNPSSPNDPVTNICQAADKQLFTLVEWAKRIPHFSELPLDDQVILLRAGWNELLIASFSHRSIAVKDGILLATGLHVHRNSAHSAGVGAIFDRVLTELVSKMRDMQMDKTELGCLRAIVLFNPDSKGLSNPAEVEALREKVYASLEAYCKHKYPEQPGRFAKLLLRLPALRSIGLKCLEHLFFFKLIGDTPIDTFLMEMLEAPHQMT
Method: (§1) (b) Gel retardation analysis of RXRα-TRα interaction using different DNA response elements. Gel retardation assays were carried out essentially as described in FIG. 1a but using different response elements. (−) represents the binding of unprogrammed reticulocyte lysate.
(§2) In vitro translated receptor protein (1 to 5 μl depending on the translation efficiency) was incubated with the ^32P-labeled oligonucleotides in a 20-μl reaction mixture containing 10 mM hepes buffer, pH 7.9, 50 mM KCl, 1 mM DTT, 2.5 mM MgCl, 10% glycerol, and 1 μg of poly(dI-dC) at 25° C. for 20 minutes. In general, relative low receptor concentration was used to obtain the clear effect of heterodimer formation. The reaction mixture was then loaded on a 5% nondenaturing ployacrylamide gel containing 0.5×TBE (1×TBE=0.089 M Tris-borate, 0.089 M boric acid, and 0.002 M EDTA). To analyze the effect of RXRα or the nuclear proteins on receptor DNA binding activity, RXRα or the cell extracts were preincubated with receptor protein at room temperature for 10 minutes before performing the DNA binding assay. When antibody was used, 1 μl of the antiserum was incubated with the specific translation products at room temperature for 45 minutes before performing the experiments described above.

TRα [1] = target: T1, TRα; assay: EMSA; no visible binding
Method: as §1, §2

TRα/RXRα heterodimer [2] = target: T2, TRα/RXRα heterodimer (UniProt P10827-2;P19793 P10827-2:1-410,P19793:1-462); assay: EMSA; strong binding
T2 sequence (P19793 whole entry, one chain of several): as above
Method: as §2

TRα/RXRα heterodimer [3] = target: T2, TRα/RXRα heterodimer; assay: EMSA; TRα binding abolished by RXRα
Method: as §2

TRα [4] = target: T1, TRα; assay: EMSA; about as efficient as palindromic TRE
Method: as §2

TRα/RXRα heterodimer [5] = target: T2, TRα/RXRα heterodimer; assay: EMSA; strongly enhanced and upshifted versus TRα alone
Method: as §2

TRα [6] = target: T1, TRα; assay: EMSA; one complex
Method: as §2

TRα [7] = target: T1, TRα; assay: EMSA
Method: as §2

Binder	binding result (RXRα)	binding result (TRα [1])	binding result (TRα/RXRα heterodimer [2])	binding result (TRα/RXRα heterodimer [3])	binding result (TRα [4])	binding result (TRα/RXRα heterodimer [5])	binding result (TRα [6])	binding result (TRα [7])
B1	no binding	no binding	binds	–	–	–	–	–
B2	no binding	–	–	no binding	binds	–	–	–
B3	no binding	–	–	–	–	binds	binds	–
B4	no binding	–	–	no binding	–	–	–	binds
